Data: patent publication US12168677B2, “Proteins for the treatment of epithelial barrier function disorders” (Genevive, Inc., priority 2017, dated 2024)

Legend:
Assay type in all cases: in vivo, C57BL/6 mice
[1] = system: DSS treated mice; assay: DSS model: colon weight to length ratio; details: 2.5% DSS 6 days
Method: Eight-week old C57BL/6 mice were housed 5 animals were cage and given food and water ad libitum for 7 days. Following the 7-day acclimation period, treatments were initiated concurrently with addition of 2.5% DSS to the drinking water. […] The mice were treated with 2.5% dextran sodium sulfate (DSS) in their drinking water for 6 days. Treatments were continued with SG-15 or […]-GLP2 twice a day (b.i.d.) in the morning and evening (every 8 and 16 hr) with i.p. injections at 50 nmoles/kg. Fresh 2.5% DSS drinking water was prepared every 2 days. Colon length and weight were measured in mice included in the DSS model study described in Example 1E. […] Accordingly, the ratio of tissue weight to length can be used as a readout of DSS induced tissue damage. SG-15 administration to DSS treated mice (Example 1E) reduced the colon weight to length ratio elicited by DSS (DSS=3.9 mg/mm, DSS+SG-15=3.5 mg/mm; p=0.13). […] However, no difference was observed between treated with SG-15 as compared to treatment with […]GLP2. The graph in FIG. 9 represents data pooled from the 2 individual experiments (n=20).

[2] = system: DSS treated mice; assay: DSS model: colon length; details: 50 nmoles/kg i.p. b.i.d.; 2.5% DSS 6 days
Method: Eight-week old C57BL/6 mice were housed 5 animals were cage and given food and water ad libitum for 7 days. Following the 7-day acclimation period, treatments were initiated concurrently with addition of 2.5% DSS to the drinking water. […] The mice were treated with 2.5% dextran sodium sulfate (DSS) in their drinking water for 6 days. Treatments were continued with SG-15 or […]-GLP2 twice a day (b.i.d.) in the morning and evening (every 8 and 16 hr) with i.p. injections at 50 nmoles/kg. Fresh 2.5% DSS drinking water was prepared every 2 days. Colon length was measured in mice included in the DSS model described in Example 1E. […] The graph in FIG. 8 represents data pooled from the 2 individual experiments (n=20).

[3] = system: DSS treated mice; assay: DSS model of inflammatory bowel disease: 4KDa-FITC dextran translocation across the epithelial barrier; details: 50 nmoles/kg i.p. b.i.d., 2.5% DSS 6 days; for 4KDa-FITC dextran in serum compared to DSS mice treated with vehicle: day 6
Method: Specifically, the mice in Example 1E were treated with dextran sodium sulfate (DSS), a chemical known to induce intestinal epithelial damage and thereby reduce intestinal barrier integrity and function. DSS mice are well-accepted models of colitis. In Example 1E, mice were treated with SG-15 protein approximately concurrent with (6 hours prior to) administration of DSS. The mice were then assessed for effects of SG-15 on clinically relevant markers of improved health. Eight-week old C57BL/6 mice were housed 5 animals were cage and given food and water ad libitum for 7 days. Following the 7-day acclimation period, treatments were initiated concurrently with addition of 2.5% DSS to the drinking water. […] The mice were treated with 2.5% dextran sodium sulfate (DSS) in their drinking water for 6 days. Treatments were continued with SG-15 or […]-GLP2 twice a day (b.i.d.) in the morning and evening (every 8 and 16 hr) with i.p. injections at 50 nmoles/kg. Fresh 2.5% DSS drinking water was prepared every 2 days. On day six, mice were fasted for four hours and then orally gavaged with 600 mg/kg 4 KDa dextran labeled with fluorescein isothiocyanate (FITC) [4KDa-FITC]. One hour after the 4KDa-FITC gavage mice were euthanized, blood was collected and FITC signal was measured in serum. […] Results are shown in FIG. 4, and are presented as mean±SEM. The graph in FIG. 4 represents data pooled from 2 individual experiments (n=20).

[4] = system: DSS treated mice; assay: DSS model: gross pathology score; details: 50 nmoles/kg i.p. b.i.d., 2.5% DSS 6 days; for Gross pathology compared to vehicle treated DSS mice: score 0-5
Method: Eight-week old C57BL/6 mice were housed 5 animals were cage and given food and water ad libitum for 7 days. Following the 7-day acclimation period, treatments were initiated concurrently with addition of 2.5% DSS to the drinking water. […] The mice were treated with 2.5% dextran sodium sulfate (DSS) in their drinking water for 6 days. Treatments were continued with SG-15 or […]-GLP2 twice a day (b.i.d.) in the morning and evening (every 8 and 16 hr) with i.p. injections at 50 nmoles/kg. Fresh 2.5% DSS drinking water was prepared every 2 days. Gross pathology observations were made in mice included in the concurrent DSS model performed in Example 1E. […] The scoring system used was: (0)=no gross pathology, (1)=streaks of blood visible in feces, (2)=completely bloody fecal pellets, (3) bloody fecal material visible in cecum, (4) bloody fecal material in cecum and loose stool, (5)=rectal bleeding. Results are shown in FIG. 7, with the graph representing data pooled from the 2 individual experiments (n=20).

[5] = system: LPS binding protein (LBP); assay: DSS model: LPS binding protein in serum (ELISA); details: 50 nmoles/kg i.p. b.i.d.; 2.5% DSS 6 days
Method: Eight-week old C57BL/6 mice were housed 5 animals were cage and given food and water ad libitum for 7 days. Following the 7-day acclimation period, treatments were initiated concurrently with addition of 2.5% DSS to the drinking water. […] The mice were treated with 2.5% dextran sodium sulfate (DSS) in their drinking water for 6 days. Treatments were continued with SG-15 or […]-GLP2 twice a day (b.i.d.) in the morning and evening (every 8 and 16 hr) with i.p. injections at 50 nmoles/kg. Fresh 2.5% DSS drinking water was prepared every 2 days. SG-15 was also assessed for its effects on the levels of LPS binding protein (LBP) in the blood of the DSS animal with and without SG-15 administration. LPS binding protein (LBP), which has been linked to clinical disease activity in subjects with inflammatory bowel disease, was also measured by ELISA in the serum of mice tested in the DSS model described in Example 1E. […] Results are shown in FIG. 5, and are presented as mean±SEM. The graph in FIG. 5 represents data pooled from the 2 individual experiments (n=20).

[6] = DSS+SG protein, 50 nmoles/kg i.p. b.i.d., unit not given

B1: SG-15: 400 amino acid protein (SEQ ID NO:1) encoded by the genome of Eubacterium eligens (protein, listed as Eubacterium eligens)
chain: EYTEIRTASELVEAAKSASGNYKLMTDIDMTGVEWTPWDFSGTFDGNGHSILNLSVKTVSKKTMKTYDGNRKEYKTYGAGFFGVLTGAKVTGLDIYGARIEITTTEPCFAAPIAGLADDSDISDCIIKDTYVSLTDSAKMWGTGGIAGFGSGNLDNITTDVTLVCVDTDAAVRDEQFMGGAYAAGFLNIRNCSITIDGYDSDHGYVHDGGLVGMYMVYPLELSKTYQGEVLNNKVKGMITFFEDNTDRRAYCQANMGEVMNWTYAYSGFTSDFKRNETYDYSVTLLPEMCSNPSYTDVVTEATASDFGYTTHTCSTCGYTYSDTYTIHEHKVDSYSVVKEAASTDKKDGIEAGTCSLCNQTVYREYAANVVTDDNTQATDNKASGTAVKKGMKESTAVFA
- Colon weight to length ratio, SG protein compared with Gly2-GLP2 ([1]; 50 nmoles/kg i.p. b.i.d.): no difference
- Colon weight to length ratio ([1]; DSS+SG-15, 50 nmoles/kg i.p. b.i.d.): 3.5 mg/mm
- Colon length / colon shortening elicited by DSS treatment [2]: reduced colon shortening
- 4KDa-FITC dextran in serum compared to DSS mice treated with vehicle [3]: significant reduction in 4KDa-FITC dextran
- Clinical scores compared with DSS mice treated with Gly2-GLP2 [4]: No differences
- Gross pathology compared to vehicle treated DSS mice [4]: significantly improved gross pathology
- LBP in serum compared to DSS mice treated with vehicle [5]: significant reduction in LBP

B2: SG-16: 119 amino acid protein (SEQ ID NO:9) encoded by the genome of Eubacterium eligens (protein, listed as Eubacterium eligens)
chain: MTGCSGSKEPDNKTSVDYTVVENADLPEELKKLIESKKDKVMRLTYTTKDYTYVVAGYGTRETSGYSIKVNDVYTGDNALYIDLNLIGPAAGEAVNEVETYPVIVLKMERREESVVFKM
- Colon weight to length ratio [1, 6]: 4.1
- Colon length / colon shortening elicited by DSS treatment [2]: slightly improved colon shortening
- 4KDa-FITC dextran in serum compared to DSS mice treated with vehicle [3]: significant reduction in 4KDa-FITC dextran
- Gross pathology compared to vehicle treated DSS mice [4]: did not reduce gross pathology
- LBP in serum compared to DSS mice treated with vehicle [5]: No change in LBP

B3: SG-17: 327 amino acid protein (SEQ ID NO:13) encoded by the genome of Eubacterium eligens (protein, listed as Eubacterium eligens)
chain: CNSKIDVKYDYNVEDYVQLGQYENISVQVDKTSIENELIESKIKQDVEDNTTYTEVDRGAIASDQILVTYTATSSGASLSGLTNTDGKTMILGTDTLGLELDELDQALYGMTPGQTKILIVDIPEDYSSDLYKGTRVVFELTMQTVAQANVPMITNAYVKEAFGYDTVEEYRQSIKESLETDINSKVENKIQEDVLSSLQDTFKISSYPDSLMEETRSRLETSIGFYADFSNLSKDEYCQKQYGLSFDDFVKKSVVQQLIMEAIVKDRNMTMREYDYKGSLDDFAADNGYSNADTFVEKFGKDKIVKAMLVQKAQDYVIEHANISYK
- Colon weight to length ratio [1, 6]: 3.14
- Colon length / colon shortening elicited by DSS treatment [2]: did not reduce colon shortening
- 4KDa-FITC dextran in serum compared to DSS mice treated with vehicle [3]: not altered
- Gross pathology compared to vehicle treated DSS mice [4]: did not reduce gross pathology
- Impact on LBP concentration compared to control peptide Gly2-GLP2 [5]: greater impact on LBP concentration
- LBP in serum compared to DSS mice treated with vehicle [5]: significant reduction in LBP

B4: SG-18: 267 amino acid protein (SEQ ID NO:19) encoded by the genome of Clostridium bartlettii sp. nov. (protein, listed as Clostridium bartlettii)
chain: EVDSSKEQATSKDEKQVVVATSVAITEILDRLGVEVSGVPQTSYELPESAKGATEIGSPMNPDMEIIKSLNPTDVICVDTLGSDFEKQFEENNINADFYNLSNVDGLKETIAALGEKFNKQDKANEILDEIKEVENKVNSNKKSDDKILVLFGAPGSVMVATDKSYIGNLVELAGGNNIFSNATSSFTQINLEEIIKLNPDKILVMTHAVPEAAKKSVEEELSKDLWKNVNAVKNNDITYLENGYFGMSANLQIVEAVEKLGDILYE
- Colon weight to length ratio [1, 6]: 3.3
- Colon length / colon shortening elicited by DSS treatment [2]: did not reduce colon shortening
- 4KDa-FITC dextran translocation compared to positive control Gly2-GLP2 [3]: even lower than the positive control
- 4KDa-FITC dextran in serum compared to DSS mice treated with vehicle [3]: significant reduction in 4KDa-FITC dextran
- Gross pathology compared to vehicle treated DSS mice [4]: did not reduce gross pathology
